Assay results taken from US20240279309A1 (Molecular Partners, published 2024).
Blank lines part the entries; values can stand above or below the binder they belong to.

What was measured:
[1] = target: T1, CD40 receptor on cells (HEK293 reporter cells expressing CD40; primary human B cells) (human, UniProt P25942 21-277); assay: cell-based or functional assay
[2] = target: T1, CD40 receptor on cells (HEK293 reporter …); assay: cell-based or functional assay; remark: listed apart in the source
[3] = target: T1, CD40 receptor on cells (HEK293 reporter …); assay: cell-based or functional assay; remark: listed apart in the source
[4] = target: T1, CD40 receptor on cells (HEK293 reporter …); assay: cell-based or functional assay; remark: listed apart in the source
[5] = target: T2, biotinylated human CD40 (recombinant human CD40 target) (human, UniProt P25942 21-194, biotinylated (site not stated)); assay: SPR (ProteOn), biotinylated human CD40 on NLC chip, ankyrin repeat protein injected, 1:1 Langmuir, PBST
T2 construct: The HTRF and SPR texts say only 'biotinylated human CD40'; the Materials list a bought Fc fusion of the extracellular domain of human CD40 (ACRO Biosystems) as the only recombinant CD40; also called hCD40; Recombinant Fc fusion protein of the extracellular domain of human CD40; not shown: IgG1 Fc domain
T2 sequence (P25942 other isoform, or with tags, fused parts or gaps): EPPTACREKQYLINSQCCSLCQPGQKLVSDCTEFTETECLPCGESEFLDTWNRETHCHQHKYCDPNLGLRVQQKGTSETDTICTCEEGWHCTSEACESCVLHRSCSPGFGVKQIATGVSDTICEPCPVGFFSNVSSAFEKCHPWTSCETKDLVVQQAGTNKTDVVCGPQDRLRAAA
Experimental: Briefly, biotinylated human CD40 was diluted in PBST (PBS, pH 7.4 containing 0.005% Tween 20®) and coated on two lanes of a NLC chip (BioRad) to levels of respectively 400 and 700 resonance units (RU). The interaction of ankyrin repeat protein and hCD40 was then measured by injecting 200 μl running buffer (PBS, pH 7.4 containing 0.005% Tween 20®) containing serial dilutions of ankyrin repeat proteins covering a concentration range between 50 nM and 3 nM for multi-trace SPR measurements (on-rate measurement), followed by a running buffer flow for at least 10 minutes at a constant flow rate of 100 μl/min (off-rate measurement). The regeneration was performed using 30 μl of 10 mM Glycine-HCl pH 2. The signals (i.e. resonance unit (RU) values) of the interspots and a reference injection (i.e. injection of running buffer only) were subtracted from the RU traces obtained after injection of ankyrin repeat protein (double-referencing). Based on the SPR traces obtained from the on-rate and off-rate measurements, the on- and off-rate of the corresponding ankyrin repeat protein—CD40 interaction was determined using a 1:1 Langmuir kinetic model.
Dissociation constants (KD) were calculated from the estimated on- and off-rates using standard procedures known to the person skilled in the art. KD values of the binding interactions of selected ankyrin repeat proteins with human CD40 were determined to be in the nanomolar range. Table 2 provides the KD values of some selected ankyrin repeat proteins as examples.

T1 sequence (P25942 21-277): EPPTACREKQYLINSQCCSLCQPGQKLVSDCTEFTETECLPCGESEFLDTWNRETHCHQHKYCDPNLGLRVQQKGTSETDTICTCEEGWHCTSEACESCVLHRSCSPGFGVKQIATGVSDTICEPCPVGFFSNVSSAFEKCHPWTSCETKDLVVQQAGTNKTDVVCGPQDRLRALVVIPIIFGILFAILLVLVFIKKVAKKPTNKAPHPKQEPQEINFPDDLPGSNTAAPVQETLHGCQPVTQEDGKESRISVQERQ

B1: SMA104 (SEQ ID NO: 102) (designed binder)
chain: MRGSHHHHHHGSDLGEKLLVAALYGQDDEVRELLKAGADVNAKDQWGLTPLHKAALQGHLEIVEVLLKAGADVNAKDERGHTPLHWAARFGHLEIVEVLLKAGADVNAQDQKGYTPADLAALWGHEDIAEVLQKAAGSPTPTPTTPTPTPTTPTPTPTGSDLGKKLLQAARAGQLDEVRELLKAGADVNAKDTWGFTPLHIAAESGHLEIVEVLLKAGADVNAKDVQGRTPLHIAAHSGHLEIVEVLLKAGADVNAKDFRGWTPLHLAAWSGHLEIVEILLKAGADVNAQDKSGKTPADLAARAGHQDIAEVLQKAAGSPTPTPTTPTPTPTTPTPTPTGSDLGKKLLQAARAGQLDEVRELLKAGADVNAKDTWGFTPLHIAAESGHLEIVEVLLKAGADVNAKDVQGRTPLHIAAHSGHLEIVEVLLKAGADVNAKDFRGWTPLHLAAWSGHLEIVEILLKAGADVNAQDKSGKTPADLAARAGHQDIAEVLQKAA
Efficacy [MFI at highest dose], MFI CD86, human B cells with FAP-CHO, w/o HSA [1]: 6270 MFI
Efficacy at highest dose, % CD86, human B cells with FAP-CHO, w/o HSA [1]: 86.8%
EC50 [nM], % CD86, human B cells with FAP-CHO, w/o HSA [2]: 0.23 nM
EC50 [nM], MFI CD86, human B cells with FAP-CHO, w/o HSA [2]: 0.74 nM
efficacy of CD86 upregulation on human B cells with FAP-CHO, fold against the monovalent F-C format (SMA014) [3]: 2 fold
potency of CD86 upregulation on human B cells with FAP-CHO, fold against the monovalent F-C format (SMA014) [3]: 20 fold
Efficacy [MFI at highest dose], MFI CD86, human B cells with WT-CHO (no FAP), w/o HSA [4]: 252 MFI
Efficacy at highest dose, % CD86, human B cells with WT-CHO (no FAP), w/o HSA [4]: 46%

B2: SMA087 (SEQ ID NO: 100) (designed binder)
chain: MRGSHHHHHHGSDLGKKLLEAARAGQDDEVRELLKAGADVNAKDYFSHTPLHLAARNGHLKIVEVLLKAGADVNAKDFAGKTPLHLAAADGHLEIVEVLLKAGADVNAQDIFGKTPADIAADAGHEDIAEVLQKAAGSPTPTPTTPTPTPTTPTPTPTGSDLGEKLLVAALYGQDDEVRELLKAGADVNAKDQWGLTPLHKAALQGHLEIVEVLLKAGADVNAKDERGHTPLHWAARFGHLEIVEVLLKAGADVNAQDQKGYTPADLAALWGHEDIAEVLQKAAGSPTPTPTTPTPTPTTPTPTPTGSDLGKKLLQAARAGQLDEVRELLKAGADVNAKDTWGFTPLHIAAESGHLEIVEVLLKAGADVNAKDVQGRTPLHIAAHSGHLEIVEVLLKAGADVNAKDFRGWTPLHLAAWSGHLEIVEILLKAGADVNAQDKSGKTPADLAARAGHQDIAEVLQKAA
Efficacy [MFI at highest dose], MFI CD86, human B cells with FAP-CHO, w HSA [1]: 799 MFI
Efficacy [MFI at highest dose], MFI CD86, human B cells with FAP-CHO, w/o HSA [1]: 1640 MFI
Efficacy at highest dose, % CD86, human B cells with FAP-CHO, w HSA [1]: 27%
Efficacy at highest dose, % CD86, human B cells with FAP-CHO, w/o HSA [1]: 43.4%
EC50 [nM], % CD86, human B cells with FAP-CHO, w HSA [2]: 72.3 nM
EC50 [nM], % CD86, human B cells with FAP-CHO, w/o HSA [2]: 11.4 nM
EC50 [nM], MFI CD86, human B cells with FAP-CHO, w HSA [2]: 52 nM
EC50 [nM], MFI CD86, human B cells with FAP-CHO, w/o HSA [2]: 28.9 nM
Efficacy [MFI at highest dose], MFI CD86, human B cells with WT-CHO (no FAP), w HSA [4]: 299 MFI
Efficacy [MFI at highest dose], MFI CD86, human B cells with WT-CHO (no FAP), w/o HSA [4]: 291 MFI
Efficacy at highest dose, % CD86, human B cells with WT-CHO (no FAP), w HSA [4]: 13.7%
Efficacy at highest dose, % CD86, human B cells with WT-CHO (no FAP), w/o HSA [4]: 12.5%

B3: DARPin® protein #29 (SEQ ID NO: 29) (designed binder)
chain: MRGSHHHHHHGSDLGKKLLQAARAGQLDEVRELLKAGADVNAKDTWGFTPLHIAAESGHLEIVEVLLKAGADVNAKDVQGRTPLHIAAHSGHLEIVEVLLKAGADVNAKDFRGWTPLHLAAWSGHLEIVEILLKAGADVNAQDKSGKTPADLAARAGHQDIAEVLQKAA
notes: His-tagged as expressed for HTRF and SPR
Kd [5]: 73 nM

More lines, now with the values ahead:

Kd [5]: 12 nM
B4: ankyrin repeat domain of SEQ ID NO: 22 (designed binder)
chain: MRGSHHHHHHGSDLGKKLLQAARAGQLDEVRELLKAGADVNAKDEFGQTPLHIAAKSGHLEIVEVLLKAGADVNAKDVYGRTPLHLAAQYGHLEIVEVLLKAGADVNAKDTQGVTPLHVAAFKGHLEIVEVLLKAGADVNAQDKSGKTPADLAARAGHQDIAEVLQKAA
notes: Expressed in E. coli from a pQE30 derivative that provides an N-terminal His-tag; purified by its His-tag for SPR

Kd [5]: 73.5 nM
B5: ankyrin repeat domain of SEQ ID NO: 31 (designed binder)
chain: MRGSHHHHHHGSDLGKKLLWAAAAGQLDEVRELLKAGADVNAKDHVGYTPLHIAALAGHLEIVEVLLKAGEDVNAKDHKGRTPLHVAAAVGHLEIVEVLLKAGADVNAKDQQGVTPLHIAAITGHLEIVEVLLKAGADVNAQDKSGKTPADLAARAGHQDIAEVLQKAA
notes: as for B4
